Laboratory results as given in the supplement of paper PMC9112550, “Optimization of the antimicrobial peptide Bac7 by deep mutational scanning” (BMC Biology, 2022).

Test system: Escherichia coli TOP10
Test: shrunken log2 fold change of peptide-encoding DNA abundance (4.5 h post-induction vs induction); higher = less antimicrobial activity (less host growth inhibition)
Conditions: time post-induction: 4.5 h; library: site-saturation at positions 5, 18, 19, 20
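Also: peptides expressed intracellularly from a pBAD plasmid library in pooled LB shake-flask culture, induced with 0.3% L-arabinose, DNA abundance read by NGS, three biological replicates, DESeq2 with apeglm shrinkage.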

| Sequence | shrunken log2 fold change |
| --- | --- |
| RRIRARPPRLPRPRPRPFGFPRP | 0.261 |
| RRIRFRPPRLPRPRPRPWATPRP | 0.0109 |
| RRIRFRPPRLPRPRPRPPKGPRP | -0.0971 |
| RRIRVRPPRLPRPRPRPEKAPRP | -0.114 |
| RRIRRRPPRLPRPRPRPVYRPRP | -0.235 |
| RRIRGRPPRLPRPRPRPFSHPRP | -0.153 |
| RRIRVRPPRLPRPRPRPEVAPRP | 1.82 |
| RRIRPRPPRLPRPRPRPHMFPRP | 0.00976 |
| RRIRQRPPRLPRPRPRPGHTPRP | 0.0169 |
| RRIRCRPPRLPRPRPRPLAPPRP | 0.268 |
| RRIRCRPPRLPRPRPRPYYGPRP | -0.199 |
| RRIRIRPPRLPRPRPRPIMEPRP | -0.216 |
| RRIRWRPPRLPRPRPRPGQHPRP | -0.172 |
| RRIRKRPPRLPRPRPRPYIQPRP | -0.319 |
| RRIRTRPPRLPRPRPRPMMGPRP | -0.1 |
| RRIRKRPPRLPRPRPRPFVLPRP | 0.389 |
| RRIRMRPPRLPRPRPRPSIEPRP | 0.0914 |
| RRIRVRPPRLPRPRPRPEWIPRP | -0.0835 |
| RRIRLRPPRLPRPRPRPARSPRP | 0.343 |
| RRIRCRPPRLPRPRPRPEIGPRP | -0.237 |
| RRIRPRPPRLPRPRPRPWLRPRP | 0.421 |
| RRIRIRPPRLPRPRPRPDHHPRP | -1.37 |
| RRIRERPPRLPRPRPRPNDAPRP | -0.19 |
| RRIRMRPPRLPRPRPRPSVCPRP | 0.386 |
| RRIRWRPPRLPRPRPRPMRFPRP | 0.00175 |

| Sequence | shrunken log2 fold change |
| --- | --- |
| RRIRHRPPRLPRPRPRPQREPRP | -0.0507 |
| RRIRKRPPRLPRPRPRPCHIPRP | -0.00879 |
| RRIRARPPRLPRPRPRPWRKPRP | 0.0387 |
| RRIRMRPPRLPRPRPRPKQSPRP | 0.757 |
| RRIRARPPRLPRPRPRPRPIPRP | 0.719 |
| RRIRGRPPRLPRPRPRPGNKPRP | -0.216 |
| RRIRCRPPRLPRPRPRPINWPRP | -0.407 |
| RRIRSRPPRLPRPRPRPCIWPRP | -0.121 |
| RRIRFRPPRLPRPRPRPDARPRP | -0.0768 |
| RRIRGRPPRLPRPRPRPWDMPRP | -0.08 |
| RRIRNRPPRLPRPRPRPFMMPRP | -0.181 |
| RRIRLRPPRLPRPRPRPEILPRP | 0.0325 |
| RRIRMRPPRLPRPRPRPIINPRP | -0.0492 |
| RRIRDRPPRLPRPRPRPAVMPRP | -0.00993 |
| RRIRNRPPRLPRPRPRPEFYPRP | -0.243 |
| RRIRCRPPRLPRPRPRPMDVPRP | -0.00136 |
| RRIRPRPPRLPRPRPRPGVKPRP | -0.0608 |
| RRIRGRPPRLPRPRPRPVTPPRP | 1.24 |
| RRIRFRPPRLPRPRPRPNWIPRP | -0.426 |
| RRIRMRPPRLPRPRPRPFVRPRP | -0.01 |
| RRIRIRPPRLPRPRPRPPHGPRP | -0.0482 |
| RRIRARPPRLPRPRPRPRTEPRP | 0.391 |
| RRIRSRPPRLPRPRPRPRNCPRP | 0.5 |
| RRIRCRPPRLPRPRPRPTATPRP | 0.299 |
| RRIRIRPPRLPRPRPRPELEPRP | 0.0281 |

| Sequence | shrunken log2 fold change |
| --- | --- |
| RRIRWRPPRLPRPRPRPGLQPRP | 0.0651 |
| RRIRKRPPRLPRPRPRPIKAPRP | 0.211 |
| RRIRRRPPRLPRPRPRPYGNPRP | -0.219 |
| RRIRGRPPRLPRPRPRPHDMPRP | -0.204 |
| RRIRQRPPRLPRPRPRPAPKPRP | 0.148 |
| RRIRFRPPRLPRPRPRPHKNPRP | -0.389 |
| RRIRCRPPRLPRPRPRPRFWPRP | 0.167 |
| RRIRKRPPRLPRPRPRPFNMPRP | 0.0229 |
| RRIRWRPPRLPRPRPRPSKIPRP | -0.152 |
| RRIRMRPPRLPRPRPRPLHFPRP | -0.0889 |
| RRIRCRPPRLPRPRPRPVNIPRP | -0.971 |
| RRIRPRPPRLPRPRPRPYRLPRP | -0.136 |
| RRIRGRPPRLPRPRPRPRMFPRP | 0.837 |
| RRIRPRPPRLPRPRPRPITWPRP | -0.0578 |
| RRIRTRPPRLPRPRPRPEAVPRP | -0.0221 |
| RRIRWRPPRLPRPRPRPAVFPRP | 0.354 |
| RRIRFRPPRLPRPRPRPAHRPRP | 0.418 |
| RRIRSRPPRLPRPRPRPNADPRP | 0.113 |
| RRIRMRPPRLPRPRPRPDYRPRP | -0.146 |
| RRIRNRPPRLPRPRPRPLVEPRP | -0.187 |
| RRIRNRPPRLPRPRPRPGRDPRP | 0.366 |
| RRIRPRPPRLPRPRPRPVDPPRP | 0.0557 |
| RRIRQRPPRLPRPRPRPGKMPRP | 0.0812 |
| RRIRGRPPRLPRPRPRPEMGPRP | 1.37 |
| RRIRTRPPRLPRPRPRPGWYPRP | -0.23 |

| Sequence | shrunken log2 fold change |
| --- | --- |
| RRIRIRPPRLPRPRPRPNAAPRP | -0.014 |
| RRIRNRPPRLPRPRPRPLPDPRP | -0.0552 |
| RRIRMRPPRLPRPRPRPGNGPRP | 0.885 |
| RRIRARPPRLPRPRPRPCRSPRP | -0.0342 |
| RRIRQRPPRLPRPRPRPVAYPRP | -0.0015 |
| RRIRNRPPRLPRPRPRPFKCPRP | -0.0598 |
| RRIRTRPPRLPRPRPRPALRPRP | 0.398 |
| RRIRFRPPRLPRPRPRPEWCPRP | 0.0522 |
| RRIRGRPPRLPRPRPRPKQHPRP | 0.906 |
| RRIRPRPPRLPRPRPRPMKRPRP | 0.153 |
| RRIRFRPPRLPRPRPRPAMEPRP | 0.0126 |
| RRIRPRPPRLPRPRPRPDLDPRP | 0.114 |
| RRIRKRPPRLPRPRPRPHHFPRP | -0.0062 |
| RRIRPRPPRLPRPRPRPQVFPRP | 0.0117 |
| RRIRSRPPRLPRPRPRPWPNPRP | -0.13 |
| RRIRCRPPRLPRPRPRPIYGPRP | -0.203 |
| RRIRVRPPRLPRPRPRPTIYPRP | -0.498 |
| RRIRRRPPRLPRPRPRPHVTPRP | -0.154 |
| RRIRERPPRLPRPRPRPSGNPRP | -0.636 |
| RRIRRRPPRLPRPRPRPRTEPRP | 0.432 |
| RRIRTRPPRLPRPRPRPNDVPRP | -0.0532 |
| RRIRERPPRLPRPRPRPPWAPRP | 0.176 |
| RRIRLRPPRLPRPRPRPGRVPRP | 0.242 |
| RRIRIRPPRLPRPRPRPFQNPRP | -0.296 |
| RRIRPRPPRLPRPRPRPVKTPRP | 0.0289 |

| Sequence | shrunken log2 fold change |
| --- | --- |
| RRIRERPPRLPRPRPRPRMPPRP | -0.0437 |
| RRIRMRPPRLPRPRPRPDQNPRP | 0.405 |
| RRIRCRPPRLPRPRPRPKSEPRP | -0.0877 |
| RRIRCRPPRLPRPRPRPVMKPRP | -0.342 |
| RRIRARPPRLPRPRPRPNWRPRP | 0.883 |
| RRIRPRPPRLPRPRPRPQARPRP | 0.208 |
| RRIRWRPPRLPRPRPRPCCQPRP | 0.0191 |
| RRIRDRPPRLPRPRPRPTDKPRP | -0.118 |
| RRIRPRPPRLPRPRPRPSKSPRP | -0.123 |
| RRIRARPPRLPRPRPRPRKIPRP | 0.429 |
| RRIRARPPRLPRPRPRPGMIPRP | 0.237 |
| RRIRFRPPRLPRPRPRPFMLPRP | -0.66 |
| RRIRHRPPRLPRPRPRPMHTPRP | 0.0398 |
| RRIRWRPPRLPRPRPRPAHNPRP | 0.352 |
| RRIRERPPRLPRPRPRPNMRPRP | 0.131 |
| RRIRQRPPRLPRPRPRPMHYPRP | -0.276 |
| RRIRKRPPRLPRPRPRPSYVPRP | -0.294 |
| RRIRRRPPRLPRPRPRPMGDPRP | -0.251 |
| RRIRKRPPRLPRPRPRPDDQPRP | -0.018 |
| RRIRSRPPRLPRPRPRPMMWPRP | 0.598 |
| RRIRKRPPRLPRPRPRPDTWPRP | 0.35 |
| RRIRFRPPRLPRPRPRPQSEPRP | 0.00741 |
| RRIRQRPPRLPRPRPRPDVIPRP | -0.011 |
| RRIRIRPPRLPRPRPRPNGDPRP | 8.33e-05 |
| RRIRDRPPRLPRPRPRPDQPPRP | -0.00151 |

| Sequence | shrunken log2 fold change |
| --- | --- |
| RRIRDRPPRLPRPRPRPHDFPRP | -0.00663 |
| RRIRWRPPRLPRPRPRPENTPRP | 0.167 |
| RRIRERPPRLPRPRPRPEQLPRP | 0.00434 |
| RRIRCRPPRLPRPRPRPASAPRP | 0.248 |
| RRIRERPPRLPRPRPRPLNLPRP | -0.312 |
| RRIRPRPPRLPRPRPRPGWAPRP | 0.623 |
| RRIRHRPPRLPRPRPRPPWEPRP | 0.193 |
| RRIRIRPPRLPRPRPRPNLQPRP | -0.285 |
| RRIRKRPPRLPRPRPRPEHTPRP | -0.0305 |
| RRIRYRPPRLPRPRPRPETSPRP | 0.014 |
| RRIRERPPRLPRPRPRPWGQPRP | 0.115 |
| RRIRGRPPRLPRPRPRPWAYPRP | -0.151 |
| RRIRNRPPRLPRPRPRPKQFPRP | -0.214 |
| RRIRLRPPRLPRPRPRPWHTPRP | -0.314 |
| RRIRGRPPRLPRPRPRPDPWPRP | 0.53 |
| RRIRKRPPRLPRPRPRPAENPRP | 0.0163 |
| RRIRWRPPRLPRPRPRPMFDPRP | 0.139 |
| RRIRMRPPRLPRPRPRPDLIPRP | 0.0508 |
| RRIRCRPPRLPRPRPRPQECPRP | -0.0139 |
| RRIRGRPPRLPRPRPRPSDTPRP | 0.116 |
| RRIRRRPPRLPRPRPRPMIGPRP | -0.041 |
| RRIRTRPPRLPRPRPRPHFSPRP | 0.0329 |
| RRIRVRPPRLPRPRPRPWIPPRP | -0.513 |
| RRIRCRPPRLPRPRPRPFKLPRP | -0.62 |
| RRIRCRPPRLPRPRPRPTCWPRP | 0.15 |
